# B1: MD1223 (bispecific antibody)
# chain: EVQLVESGGGLVQPGGSLKLSCAASGFTFSTSWMYWLRQAPGKGLEWVSVINTDGGTYYADSVKDRFTISRDNAKDTLYLQMSSLKSEDTAVYYCAKDWGGPEPTRGQGTQVTVSSAAAGGGGSGGGGSGGGGSGGGGSGGGGSGGGGSGGGGSEVQLVESGGGLVQPGGSLRLSCAATGFTLENKAIGWFRQTPGSEREGVLCISKSGSWTYYTDSMRGRFTISRDNAENTVYLQMDSLKPEDTAVYYCATTTAGGGLCWDGTTFSRLASSWGQGTQVTVSS
# B2: MD2301 (bispecific antibody)
# chain: EVQLVESGGGLVQPGGSLRLSCAATGFTLENKAIGWFRQTPGSEREGVLCISKSGSWTYYTDSMRGRFTISRDNAENTVYLQMDSLKPEDTAVYYCATTTAGGGLCWDGTTFSRLASSWGQGTQVTVSSGGGGSGGGGSEVQLVESGGGLVQPGGSLRLSCAVSISIFDIYAMDWYRQAPGKQRDLVATSFRDGSTNYADSVKGRFTISRDNAKNTLYLQMNSLKPEDTAVYLCHVSLYRDPLGVAGGMGVYWGKGALVTVSSGGGGSGGGGSEVQLVESGGGLVQAGGSLKLSCAASGRTYAMGWFRQAPGKEREFVAHINALGTRTYYSDSVKGRFTISRDNAKNTEYLEMNNLKPEDTAVYYCTAQGQWRAAPVAVAAEYEFWGQGTQVTVSS
# B3: MD2302 (bispecific antibody)
# chain: EVQLVESGGGLVQPGGSLRLSCAVSISIFDIYAMDWYRQAPGKQRDLVATSFRDGSTNYADSVKGRFTISRDNAKNTLYLQMNSLKPEDTAVYLCHVSLYRDPLGVAGGMGVYWGKGALVTVSSGGGGSGGGGSEVQLVESGGGLVQPGGSLRLSCAATGFTLENKAIGWFRQTPGSEREGVLCISKSGSWTYYTDSMRGRFTISRDNAENTVYLQMDSLKPEDTAVYYCATTTAGGGLCWDGTTFSRLASSWGQGTQVTVSSGGGGSGGGGSEVQLVESGGGLVQAGGSLKLSCAASGRTYAMGWFRQAPGKEREFVAHINALGTRTYYSDSVKGRFTISRDNAKNTEYLEMNNLKPEDTAVYYCTAQGQWRAAPVAVAAEYEFWGQGTQVTVSS
# B4: MD2304 (bispecific antibody)
# chain: EVQLVESGGGLVQPGGSLRLSCAATGFTLENKAIGWFRQTPGSEREGVLCISKSGSWTYYTDSMRGRFTISRDNAENTVYLQMDSLKPEDTAVYYCATTTAGGGLCWDGTTFSRLASSWGQGTQVTVSSGGGGSGGGGSEVQLVESGGGLVQPGGSLRLSCAVSISIFDIYAMDWYRQAPGKQRDLVATSFRDGSTNYADSVKGRFTISRDNAKNTLYLQMNSLKPEDTAVYLCHVSLYRDPLGVAGGMGVYWGKGALVTVSSGGGGSGGGGSEVQLVESGGGLVQPGGSLRLSCAVSISIFDIYAMDWYRQAPGKQRDLVATSFRDGSTNYADSVKGRFTISRDNAKNTLYLQMNSLKPEDTAVYLCHVSLYRDPLGVAGGMGVYWGKGALVTVSS
# B5: MD2305 (bispecific antibody)
# chain: EVQLVESGGGLVQPGGSLRLSCAVSISIFDIYAMDWYRQAPGKQRDLVATSFRDGSTNYADSVKGRFTISRDNAKNTLYLQMNSLKPEDTAVYLCHVSLYRDPLGVAGGMGVYWGKGALVTVSSGGGGSGGGGSEVQLVESGGGLVQPGGSLRLSCAATGFTLENKAIGWFRQTPGSEREGVLCISKSGSWTYYTDSMRGRFTISRDNAENTVYLQMDSLKPEDTAVYYCATTTAGGGLCWDGTTFSRLASSWGQGTQVTVSSGGGGSGGGGSEVQLVESGGGLVQPGGSLRLSCAVSISIFDIYAMDWYRQAPGKQRDLVATSFRDGSTNYADSVKGRFTISRDNAKNTLYLQMNSLKPEDTAVYLCHVSLYRDPLGVAGGMGVYWGKGALVTVSS
# B6: MD2306 (bispecific antibody)
# chain: EVQLVESGGGLVQPGGSLRLSCAVSISIFDIYAMDWYRQAPGKQRDLVATSFRDGSTNYADSVKGRFTISRDNAKNTLYLQMNSLKPEDTAVYLCHVSLYRDPLGVAGGMGVYWGKGALVTVSSGGGGSGGGGSEVQLVESGGGLVQPGGSLRLSCAVSISIFDIYAMDWYRQAPGKQRDLVATSFRDGSTNYADSVKGRFTISRDNAKNTLYLQMNSLKPEDTAVYLCHVSLYRDPLGVAGGMGVYWGKGALVTVSSGGGGSGGGGSEVQLVESGGGLVQPGGSLRLSCAATGFTLENKAIGWFRQTPGSEREGVLCISKSGSWTYYTDSMRGRFTISRDNAENTVYLQMDSLKPEDTAVYYCATTTAGGGLCWDGTTFSRLASSWGQGTQVTVSS
# B7: MD2308 (bispecific antibody)
# chain: EVQLVESGGGLVQAGDSLRISCAASGRTLSIYSMGWFRQAPGKEREFVATIGWNSGRTFYPDSLKGRFTISRDNARNTLYLQMNNLRPEDTAVYYCAAAKGPLRLSSQADYWGQGTQVTVSSGGGGSGGGGSEVQLVESGGGLVQPGGSLRLSCAATGFTLENKAIGWFRQTPGSEREGVLCISKSGSWTYYTDSMRGRFTISRDNAENTVYLQMDSLKPEDTAVYYCATTTAGGGLCWDGTTFSRLASSWGQGTQVTVSSGGGGSGGGGSEVQLVESGGGLVQAGDSLRLSCAASGPTFGMSAMGWFRQAPGKEREFVAAISGLGNPNYSDDVKGRFTISRENGRNTVYLQMNSLKPEDTAVYYCAQRKVYHVQGGDRPQAYDYWGQGTQVTVSS
# B8: MD2309 (bispecific antibody)
# chain: EVQLVESGGGLVQAGDSLRISCAASGRTLSIYSMGWFRQAPGKEREFVATIGWNSGRTFYPDSLKGRFTISRDNARNTLYLQMNNLRPEDTAVYYCAAAKGPLRLSSQADYWGQGTQVTVSSGGGGSGGGGSEVQLVESGGGLVQAGDSLRLSCAASGPTFGMSAMGWFRQAPGKEREFVAAISGLGNPNYSDDVKGRFTISRENGRNTVYLQMNSLKPEDTAVYYCAQRKVYHVQGGDRPQAYDYWGQGTQVTVSSGGGGSGGGGSEVQLVESGGGLVQPGGSLRLSCAATGFTLENKAIGWFRQTPGSEREGVLCISKSGSWTYYTDSMRGRFTISRDNAENTVYLQMDSLKPEDTAVYYCATTTAGGGLCWDGTTFSRLASSWGQGTQVTVSS
# B9: MD2310 (bispecific antibody)
# chain: EVQLVESGGGLVQPGGSLRLSCAATGFTLENKAIGWFRQTPGSEREGVLCISKSGSWTYYTDSMRGRFTISRDNAENTVYLQMDSLKPEDTAVYYCATTTAGGGLCWDGTTFSRLASSWGQGTQVTVSSGGGGSGGGGSEVQLVESGGGLVQAGDSLRLSCAASGPTFGMSAMGWFRQAPGKEREFVAAISGLGNPNYSDDVKGRFTISRENGRNTVYLQMNSLKPEDTAVYYCAQRKVYHVQGGDRPQAYDYWGQGTQVTVSSGGGGSGGGGSEVQLVESGGGLVQAGDSLRISCAASGRTLSIYSMGWFRQAPGKEREFVATIGWNSGRTFYPDSLKGRFTISRDNARNTLYLQMNNLRPEDTAVYYCAAAKGPLRLSSQADYWGQGTQVTVSS
# B10: MD2311 (bispecific antibody)
# chain: EVQLVESGGGLVQAGDSLRLSCAASGPTFGMSAMGWFRQAPGKEREFVAAISGLGNPNYSDDVKGRFTISRENGRNTVYLQMNSLKPEDTAVYYCAQRKVYHVQGGDRPQAYDYWGQGTQVTVSSGGGGSGGGGSEVQLVESGGGLVQPGGSLRLSCAATGFTLENKAIGWFRQTPGSEREGVLCISKSGSWTYYTDSMRGRFTISRDNAENTVYLQMDSLKPEDTAVYYCATTTAGGGLCWDGTTFSRLASSWGQGTQVTVSSGGGGSGGGGSEVQLVESGGGLVQAGDSLRISCAASGRTLSIYSMGWFRQAPGKEREFVATIGWNSGRTFYPDSLKGRFTISRDNARNTLYLQMNNLRPEDTAVYYCAAAKGPLRLSSQADYWGQGTQVTVSS
# B11: MD2314 (bispecific antibody)
# chain: EVQLVESGGGLVQAGDSLRLSCAASGPTFGMSAMGWFRQAPGKEREFVAAISGLGNPNYSDDVKGRFTISRENGRNTVYLQMNSLKPEDTAVYYCAQRKVYHVQGGDRPQAYDYWGQGTQVTVSSGGGGSGGGGSEVQLVESGGGLVQAGDSLRLSCAASGPTFGMSAMGWFRQAPGKEREFVAAISGLGNPNYSDDVKGRFTISRENGRNTVYLQMNSLKPEDTAVYYCAQRKVYHVQGGDRPQAYDYWGQGTQVTVSSGGGGSGGGGSEVQLVESGGGLVQPGGSLRLSCAATGFTLENKAIGWFRQTPGSEREGVLCISKSGSWTYYTDSMRGRFTISRDNAENTVYLQMDSLKPEDTAVYYCATTTAGGGLCWDGTTFSRLASSWGQGTQVTVSS
# B12: SD1036 + SD1038 (protein)
# VHH 1: EVQLVESGGGLVQAGGSLKLSCAASGRTYAMGWFRQAPGKEREFVAHINALGTRTYYSDSVKGRFTISRDNAKNTEYLEMNNLKPEDTAVYYCTAQGQWRAAPVAVAAEYEFWGQGTQVTVSS
# VHH 2: EVQLVESGGGLVQPGGSLRLSCAVSISIFDIYAMDWYRQAPGKQRDLVATSFRDGSTNYADSVKGRFTISRDNAKNTLYLQMNSLKPEDTAVYLCHVSLYRDPLGVAGGMGVYWGKGALVTVSS
# Biological target: hemagglutinin (HA) of influenza virus B/Lee/40 (Old) (influenza B virus) (UniProt P03460)
# Sequence (P03460 16-584 limits assumed): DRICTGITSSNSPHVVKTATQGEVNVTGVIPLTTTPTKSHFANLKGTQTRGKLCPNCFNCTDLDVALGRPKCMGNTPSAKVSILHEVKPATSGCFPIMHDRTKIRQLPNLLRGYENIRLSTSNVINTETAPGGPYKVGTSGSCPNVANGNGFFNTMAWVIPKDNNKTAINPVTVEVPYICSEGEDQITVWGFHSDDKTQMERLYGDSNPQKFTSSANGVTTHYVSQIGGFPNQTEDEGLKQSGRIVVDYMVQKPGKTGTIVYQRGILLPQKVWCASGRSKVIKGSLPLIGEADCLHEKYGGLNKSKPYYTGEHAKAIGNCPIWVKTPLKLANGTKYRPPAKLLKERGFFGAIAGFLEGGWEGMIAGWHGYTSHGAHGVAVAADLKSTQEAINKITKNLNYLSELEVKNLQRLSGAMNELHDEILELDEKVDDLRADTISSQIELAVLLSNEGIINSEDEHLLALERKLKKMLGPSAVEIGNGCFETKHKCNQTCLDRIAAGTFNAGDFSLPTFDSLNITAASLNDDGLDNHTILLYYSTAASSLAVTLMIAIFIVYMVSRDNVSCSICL
# Experiment: cell-based or functional assay
row,Binder,neutralization titer
1,B1,18 nM

# Biological target: hemagglutinin (HA) of influenza virus H1N1 A/New Caledonia/20/99 (influenza A virus)
# Experiment: cell-based or functional assay
row,Binder,average neutralization titer
1,B2,14.7 nM
2,B3,14.7 nM
3,B4,20.6 nM
4,B5,4.3 nM
5,B6,6.1 nM

# Biological target: hemagglutinin (HA) of influenza virus H7N3 A/NIBRG/60 (A/mallard/Netherlands/12/00) (influenza A virus)
# Experiment: cell-based or functional assay
row,Binder,average neutralization titer
1,B6,15.4 nM
2,B7,12.8 nM
3,B8,9.1 nM
4,B9,30.4 nM
5,B10,15.3 nM
6,B11,> 1000 nM

# Biological target: hemagglutinin (HA) of influenza virus H5N1 A/Vietnam/1194/04 (influenza A virus)
# Experiment: cell-based or functional assay
Binder,neutralization titer,average neutralization titer
B12,19.3 nM,
B6,,4.7 nM
B7,,21.6 nM
B8,,12.8 nM
B9,,21.6 nM
B10,,12.8 nM
B11,,6.5 nM

# Biological target: hemagglutinin (HA) of influenza virus H3N2 A/Brisbane/10/07 (influenza A virus)
# Experiment: cell-based or functional assay
row,Binder,average neutralization titer
1,B6,10.7 nM
2,B7,15.3 nM
3,B8,12.8 nM
4,B9,25.5 nM
5,B10,21.6 nM
6,B11,> 1000 nM

# Biological target: hemagglutinin (HA) of influenza virus B/Florida/04/06 (Yamagata) (influenza B virus)
# Experiment: cell-based or functional assay
Binder,neutralization titer,average neutralization titer
B1,2.3 nM,
B2,,412 nM
B3,,412 nM

# Biological target: hemagglutinin (HA) of influenza virus H1N1 A/Puerto Rico/8/34-MA (influenza A virus)
# Experiment: cell-based or functional assay
row,Binder,neutralization titer
1,B12,6.8 nM

# Biological target: hemagglutinin (HA) of influenza virus H3N2 A/Wisconsin/67/05 (influenza A virus)
# Experiment: cell-based or functional assay
Binder,neutralization titer,average neutralization titer
B12,< 1000 nM,
B2,,34.7 nM
B3,,34.7 nM
B4,,18.2 nM
B5,,21.7 nM
B6,,5.4 nM

# Source: patent US20190359693A1
